Assay results as given in PMC9482650, “Quantitative fragmentomics allow affinity mapping of interactomes” (Nature Communications, 2022).
Blank lines part the entries; values can stand above or below the binder they belong to.

Tests used:
Experiment in all cases: holdup assay
Parameters in all cases: key: below the threshold = too weak to quantify, mostly under pKd 3.1 to 4
[1] = target: AHNAK1, Q09666
[2] = target: T1, APBA2_1, Q99767
T1 sequence (Q99767 563-664, limits assumed, looked up): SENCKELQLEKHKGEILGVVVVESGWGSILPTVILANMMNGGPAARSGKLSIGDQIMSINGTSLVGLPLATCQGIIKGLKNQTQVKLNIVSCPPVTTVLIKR

[3] = target: T2, DFNB31_3, Q9P202
T2 sequence (Q9P202 811-907, limits assumed, looked up): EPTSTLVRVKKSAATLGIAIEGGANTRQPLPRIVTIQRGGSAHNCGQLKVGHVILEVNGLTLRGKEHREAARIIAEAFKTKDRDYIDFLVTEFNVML

[4] = target: DLG1_2, Q12959
[5] = target: DLG1_3, Q12959
[6] = target: T3, DLG3_1, Q92796
T3 sequence (Q92796 125-227, limits assumed, looked up): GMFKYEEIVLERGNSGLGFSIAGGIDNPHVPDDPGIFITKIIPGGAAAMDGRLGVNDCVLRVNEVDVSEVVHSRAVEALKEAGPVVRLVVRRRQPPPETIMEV

[7] = target: GORASP1, Q9BQQ3
[8] = target: T4, HTRA3, P83110
T4 sequence (P83110 354-453, limits assumed, looked up): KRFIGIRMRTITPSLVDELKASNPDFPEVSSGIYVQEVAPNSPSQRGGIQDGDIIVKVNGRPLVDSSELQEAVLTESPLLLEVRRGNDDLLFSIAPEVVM

[9] = target: Inadl_2, Q8NI35
[10] = target: Inadl_9, Q8NI35
[11] = target: LDB3, O75112
[12] = target: LNX1_2, Q8TBB1
[13] = target: T5, LNX2_2, Q8N448
T5 sequence (Q8N448 334-432, limits assumed, looked up): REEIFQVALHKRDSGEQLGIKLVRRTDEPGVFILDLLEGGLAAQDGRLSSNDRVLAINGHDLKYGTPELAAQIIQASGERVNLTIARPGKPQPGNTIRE

[14] = target: MAGI1_2, Q96QZ7
[15] = target: T6, MPDZ_10, O75970
T6 sequence (O75970 1624-1722, limits assumed, looked up): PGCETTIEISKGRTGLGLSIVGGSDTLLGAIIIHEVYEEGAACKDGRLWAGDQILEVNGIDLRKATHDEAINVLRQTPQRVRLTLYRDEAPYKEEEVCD

[16] = target: T7, MPP6, Q9NZW5
T7 sequence (Q9NZW5 125-219, limits assumed, looked up): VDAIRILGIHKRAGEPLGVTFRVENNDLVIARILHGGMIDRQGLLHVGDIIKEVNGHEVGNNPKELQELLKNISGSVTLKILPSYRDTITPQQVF

[17] = target: T8, NHERF3_1, Q5T2W1
T8 sequence (Q5T2W1 4-100, limits assumed, looked up): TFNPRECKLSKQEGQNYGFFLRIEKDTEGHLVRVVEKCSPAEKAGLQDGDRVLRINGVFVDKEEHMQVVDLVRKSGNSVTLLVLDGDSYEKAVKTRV

[18] = target: T9, NHERF3_3, Q5T2W1
T9 sequence (Q5T2W1 238-333, limits assumed, looked up): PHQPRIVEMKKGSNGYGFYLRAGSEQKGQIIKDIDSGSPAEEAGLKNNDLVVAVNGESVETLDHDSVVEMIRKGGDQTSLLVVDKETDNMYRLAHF

[19] = target: NHERF4_1, Q86UT5-2
[20] = target: NOS1, P29475
[21] = target: PDLIM1, O00151
[22] = target: PICK1, Q9NRD5
[23] = target: T10, RAPGEF6, Q8TEU7
T10 sequence (Q8TEU7 525-625, limits assumed, looked up): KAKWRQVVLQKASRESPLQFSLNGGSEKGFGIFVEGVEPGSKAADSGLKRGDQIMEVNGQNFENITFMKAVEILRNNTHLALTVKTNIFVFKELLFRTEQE

[24] = target: SCRIB_3, Q14160
[25] = target: T11, SNTA1, Q13424
T11 sequence (Q13424 82-180, limits assumed, looked up): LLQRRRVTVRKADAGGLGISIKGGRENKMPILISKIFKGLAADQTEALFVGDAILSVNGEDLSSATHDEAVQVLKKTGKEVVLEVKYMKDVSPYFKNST

[26] = target: T12, TJP3_3, O95049
T12 sequence (O95049 375-456, limits assumed, looked up): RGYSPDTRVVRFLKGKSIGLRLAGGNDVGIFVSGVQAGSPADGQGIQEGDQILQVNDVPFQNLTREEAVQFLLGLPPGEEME

[27] = plain residues with an end cap or a label only (N-terminal biotin on a linker: ado-ado)
[28] = plain residues with an end cap or a label only (N-terminal biotin on a linker: ahx)

Inadl_9, Q8NI35, sequence (Q8NI35 1530-1615): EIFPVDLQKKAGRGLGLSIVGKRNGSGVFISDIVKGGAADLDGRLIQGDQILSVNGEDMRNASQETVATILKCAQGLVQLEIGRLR
LNX1_2, Q8TBB1, sequence (Q8TBB1 371-470): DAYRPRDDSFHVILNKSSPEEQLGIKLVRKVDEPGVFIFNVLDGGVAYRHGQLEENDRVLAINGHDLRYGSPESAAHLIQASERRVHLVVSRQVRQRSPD
MAGI1_2, Q96QZ7, sequence (Q96QZ7 456-580): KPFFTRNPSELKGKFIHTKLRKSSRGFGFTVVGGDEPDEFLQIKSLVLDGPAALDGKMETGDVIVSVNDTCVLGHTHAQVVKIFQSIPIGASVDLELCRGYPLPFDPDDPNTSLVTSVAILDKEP
SCRIB_3, Q14160, sequence (Q14160 999-1103): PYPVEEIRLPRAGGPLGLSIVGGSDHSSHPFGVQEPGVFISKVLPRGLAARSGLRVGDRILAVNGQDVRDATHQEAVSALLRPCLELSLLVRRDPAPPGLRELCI
NOS1, P29475, sequence (P29475 9-101): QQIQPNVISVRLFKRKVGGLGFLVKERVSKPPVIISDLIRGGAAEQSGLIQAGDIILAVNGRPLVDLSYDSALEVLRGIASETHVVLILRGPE
DLG1_3, Q12959, sequence (Q12959 457-571): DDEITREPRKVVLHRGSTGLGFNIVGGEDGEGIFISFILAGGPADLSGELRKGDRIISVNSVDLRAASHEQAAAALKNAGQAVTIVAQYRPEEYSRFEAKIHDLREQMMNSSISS
PICK1, Q9NRD5, sequence (Q9NRD5 17-115): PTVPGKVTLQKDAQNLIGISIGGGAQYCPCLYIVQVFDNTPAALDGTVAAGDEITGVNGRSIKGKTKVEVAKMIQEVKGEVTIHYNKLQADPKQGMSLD
PDLIM1, O00151, sequence (O00151 1-87): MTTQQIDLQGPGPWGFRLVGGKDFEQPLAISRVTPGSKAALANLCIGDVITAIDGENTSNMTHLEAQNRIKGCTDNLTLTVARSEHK
AHNAK1, Q09666, sequence (Q09666 4-100): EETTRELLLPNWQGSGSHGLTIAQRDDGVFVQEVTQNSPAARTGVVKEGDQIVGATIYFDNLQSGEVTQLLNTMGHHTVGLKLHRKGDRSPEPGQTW
LDB3, O75112, sequence (O75112 1-94): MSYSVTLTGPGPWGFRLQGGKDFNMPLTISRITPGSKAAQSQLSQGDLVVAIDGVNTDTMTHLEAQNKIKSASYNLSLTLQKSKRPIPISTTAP
Inadl_2, Q8NI35, sequence (Q8NI35 238-335): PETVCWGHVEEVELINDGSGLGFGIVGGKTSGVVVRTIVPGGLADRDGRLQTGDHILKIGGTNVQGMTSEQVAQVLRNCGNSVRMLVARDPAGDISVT
GORASP1, Q9BQQ3, sequence (Q9BQQ3 1-208): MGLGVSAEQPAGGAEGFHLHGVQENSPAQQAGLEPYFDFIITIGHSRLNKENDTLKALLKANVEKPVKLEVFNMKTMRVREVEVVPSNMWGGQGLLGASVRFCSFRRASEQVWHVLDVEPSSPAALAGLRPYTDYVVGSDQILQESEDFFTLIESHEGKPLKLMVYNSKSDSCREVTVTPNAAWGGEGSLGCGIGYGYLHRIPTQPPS
NHERF4_1, Q86UT5-2, sequence (Q86UT5 other isoform, or with tags, fused parts or gaps): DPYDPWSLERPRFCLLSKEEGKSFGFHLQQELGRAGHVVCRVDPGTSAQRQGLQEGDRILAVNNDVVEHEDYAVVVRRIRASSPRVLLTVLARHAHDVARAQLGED
DLG1_2, Q12959, sequence (Q12959 314-412): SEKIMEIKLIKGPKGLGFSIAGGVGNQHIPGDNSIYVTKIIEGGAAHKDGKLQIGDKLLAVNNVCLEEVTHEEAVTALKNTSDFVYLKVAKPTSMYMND

pKd [1, 27]: below the threshold | pKd [2, 27]: below the threshold | pKd [3, 27]: 4.1 | pKd [4, 27]: 3.53 | pKd [5, 27]: below the threshold | pKd [6, 27]: below the threshold | pKd [7, 27]: below the threshold | pKd [8, 27]: below the threshold | pKd [9, 27]: below the threshold | pKd [10, 27]: 3.51 | pKd [11, 27]: below the threshold | pKd [12, 27]: below the threshold | pKd [13, 27]: below the threshold | pKd [14, 27]: below the threshold | pKd [15, 27]: 3.52 | pKd [16, 27]: below the threshold | pKd [17, 27]: 4.36 | pKd [18, 27]: below the threshold | pKd [19, 27]: below the threshold | pKd [20, 27]: below the threshold | pKd [21, 27]: below the threshold | pKd [22, 27]: 4.18 | pKd [23, 27]: below the threshold | pKd [24, 27]: below the threshold | pKd [25, 27]: 4.81 | pKd [26, 27]: below the threshold
B1: KLHDC7A, Q5VTJ3 (peptide)
chain: PTPDLPQTRV

pKd [1, 28]: below the threshold | pKd [2, 28]: below the threshold | pKd [3, 28]: below the threshold | pKd [4, 28]: 3.62 | pKd [5, 28]: 3.49 | pKd [6, 28]: below the threshold | pKd [7, 28]: 3.51 | pKd [8, 28]: below the threshold | pKd [9, 28]: below the threshold | pKd [10, 28]: below the threshold | pKd [11, 28]: below the threshold | pKd [12, 28]: below the threshold | pKd [13, 28]: below the threshold | pKd [14, 28]: 4.97 | pKd [15, 28]: below the threshold | pKd [16, 28]: below the threshold | pKd [17, 28]: 5.47 | pKd [18, 28]: below the threshold | pKd [19, 28]: 4.47 | pKd [20, 28]: 3.72 | pKd [21, 28]: below the threshold | pKd [22, 28]: below the threshold | pKd [23, 28]: below the threshold | pKd [24, 28]: 4.59 | pKd [25, 28]: below the threshold | pKd [26, 28]: below the threshold
B2: FRMPD1, Q5SYB0 (peptide)
chain: TQKFRASTAL
